Results from the nanobody polyreactivity screen of Harvey et al. (2022).

Assay: yeast display, Sf9 membrane polyspecificity reagent, FACS + sequencing; frameworks hold sequencing errors
Outline: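 In a synthetic yeast display library (Saccharomyces cerevisiae BJ5465), nanobody expression was induced with galactose for 36–48 hours. FACS gates were set low and high (top ~1%) using anti-HA fluorescence for expression and streptavidin fluorescence for binding of the Sf9 membrane reagent. Each polyreactivity label is drawn from the gate of origin.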

QVQLGESGGGLVQAGGSLRLICAASGRTFKKYPMGWYRQAPGKERDVVAAISWSGGTTYYAHSEKGRFTISRDTAKNTVYLQMNSLKPEDTAVYYSAARVSRTGHGYYYYWGQVTQVTVSS
polyreactivity (PSR sort gate): high polyreactivity

QVQLGESGGGLVQAGGSLRLSCAASGFTFHKNAMGWYRQAPGKERELVAVISQSASSTYYSDSVKGRFTISRDIAKITVYLQMNGLKPEDTAVYYCNAKYYRYNRRNYWGQGTQVTVSS
polyreactivity (PSR sort gate): high polyreactivity

QVQLGESGGGLVQAGGSLRLSCAASGFTFHLYAMGWYRQAPGKERELVAAISQSGDSTYYADSVKGRFTISRDNAKNTVYLQMNSLKPDDTAVYYFNADNDGVVWSYPFDFDYWGQGTQVTVSS
polyreactivity (PSR sort gate): low polyreactivity

QVQLGESGGGLVQAGGSLRLSCAASGGIFAENAIGRYRQAPGKERELVAAINGGGSTKYADSVKGRFTISRDNAKNTVYLQMNSLKPEDTAVYYCAADPSVPRQVDYWGQGTLVTVSS
polyreactivity (PSR sort gate): low polyreactivity

QVQLGESGGGLVQAGGSLRLSCAASGGIFGKYAMGWYRQAPGKERELVAAISGGSRTNYADSVKGRFTISRDNAKNTVYLQMNSLKPEDTAVYYCAARYAYSAQRLYYWGQGTQVTVSS
polyreactivity (PSR sort gate): high polyreactivity

QVQLGESGGGLVQAGGSLRLSCAASGIILHGYAMGWYRPAPGKEREFVATITLSGSSTYYADSVKGRFTISRDNAKNTVYLQMNSRKAEDTAVYYSAARTWVIVYGLQYDYWGHGTQVTVSS
polyreactivity (PSR sort gate): high polyreactivity

QVQLGESGGGLVQAGGSLRLSCAASGITFTKYVMGWYRQAPGKERELVATIRWGASSTHYADSVKGRFTISRDNAKNTVYLQMNSLKPEDTAVYYCNADGWYGAVYWWFYGFDYWGQGTQVTVSS
polyreactivity (PSR sort gate): low polyreactivity

QVQLGESGGGLVQAGGSLRLSCAASGLIFPRYAMGWYRQAPGKERELVAAITRGGSTYYADSVKGRFTISRDNAKNTVYVQMNSLKPEDSAVYYCNDELPVHWSWYDYWGQGTQVTVSS
polyreactivity (PSR sort gate): low polyreactivity

QVQLGESGGGLVQAGGSLRLSCAASGRIFASNAMGWYRPAPGKESELVAAIDQSGGSTYYADSVKGRFTISRDNAKNTVYLQMNSLKPEDTAVYYCAARAYLISSSTPFWTGYDSWGQGTQVTVSS
polyreactivity (PSR sort gate): low polyreactivity

QVQLGESGGGLVQAGGSLRLSCAASGRTFDKNAMGWYRQAPGKERELVATISSGGSTYYADSVKGRFTISRDNAKNTVYLQMNSLKPEDTAVYYCNARGVRATRRRYGYWGQGTQVTVSS
polyreactivity (PSR sort gate): low polyreactivity

QVQLGESGGGLVQAGGSLRLSCAASGRTFGPYAMGWYRQAPGKERELVAAIRYIDDSTFYADSVKGRFTISRDTAKNTVYLQMNSLKPEDTAVYYCAARPYPHSAYEGDYWGRGTQVTVSS
polyreactivity (PSR sort gate): low polyreactivity

QVQLGESGGGLVQAGGSLRLSCAASGRTFYWYTMGWYRQAPGKESELVAAISTRGVRTYYADSVKGRFTISRDNAKNTVYLQMNSLKPADTAVYYCNNYVAYDYWGQGTQVTVSS
polyreactivity (PSR sort gate): low polyreactivity

QVQLGESGGGLVQAGGSLRLSCAASGRTLWFYAMGWYRQAPGKERELVAAISSGGSTNYGDSVKGRFTISRDNAKNTVYLQMNSLKPEDTAVYYCAKVGNIPYGTRYDSNRYDYWGQGTQVTVSS
polyreactivity (PSR sort gate): low polyreactivity

QVQLGESGGGLVQAGGSLRLSCAASGSIFPDNTMGWYRPATGKEWELVAAIDGRGGTTYYADSVKGRFTISRDNAKNTVYLQMNSLKPEDTAVYYCARDIGHSARYDYWGQGTQVTVSS
polyreactivity (PSR sort gate): low polyreactivity

QVQLGESGGGLVQAGGSLRLSCAASGSIFSDYAMGWYRQAPGKERELVAAIRYRGGRTYYADSVKGRFTISRDNAKNTVYLQMNSLKPEDTAVYYCNADVIRRGGSRYSTGREFDYWGQGTQVTVSS
polyreactivity (PSR sort gate): high polyreactivity

QVQLGESGGGLVQAGGSLRLSCAASGSTFAKYAMGWYRQAPGKERELVAAISSSGTCTYYADSVKGRFTISRDNAKNTVYLQMNSRKPEDTAVYYCAASYRNRYIAFYYWGQGTQVTVSS
polyreactivity (PSR sort gate): low polyreactivity

QVQLGESGGGLVQAGGSLRLSCAASGSTFDYYAMGWYRQAPGKERELVAGITSDGSTYYADSVKGRFTISRDNAKNTVYLQMNSLKPEDTAVYYCNKDSTGDGYEYWGQGTQVTVSS
polyreactivity (PSR sort gate): low polyreactivity

QVQLGESGGGLVQAGGSLRLSCAASGSTFGRYVMGWYRQAPAKERELVDAISKNAGSTYYADSVKGRFTISRDIAKKTVYLQMNSLKPEDTAVYYCAADWRTKGYDSLGQGTQVTVSS
polyreactivity (PSR sort gate): high polyreactivity

QVQLGESGGGLVQAGGSLRLSCAASGSTFTRYGMGWYRQAPGKERELVAAITTSGSSTYYADSVKGRFTISRDNAKNTVYLQMNSLKPEDTAVYYCAADWSSWGFDYWGQGTQVTVSS
polyreactivity (PSR sort gate): low polyreactivity

QVQLGESGGGLVQAGGSLRLSCAPTGRTFVRNAIGWYRPAPGKERELVAAISYSGGSTTYADSVKGRFTISRDNAKNTVYLQMNSLKPADTAVYYCAKKPPVGEPSGREYWGQGTQVTVSS
polyreactivity (PSR sort gate): low polyreactivity

QVQLGESGGGLVQAGGSLRLSCVASGFIFRGNAMGWYRQAPGKERELVATISSGGNTYYADSVKGRFTISRDNAKNTVYLQINSLKPEDTAVYYCNASDGLPTKLNVYVEFDYWGQGTQVTVSS
polyreactivity (PSR sort gate): low polyreactivity

QVQLGESGGGLVQAGVSLRLSCAASGNTFYWNAMGWYRQAPGKERELVAAISTTGVSTYYADSVKGRFTISRDNAKNTVYLQMNSLKPEDTAVYYCAVDPPYSNPITINEDYWGQGTQVTVSS
polyreactivity (PSR sort gate): low polyreactivity

QVQLGESGGGLVQSGGSLRLSCAASGIIFRNYAMGWYRPAPGKERELVATITGDGGSTYYADSVKGRFTISRDNAKNTVYFQMNSLKPEDTAVYYCAAEYHHYYYYWGEYWGQGTQVTVSS
polyreactivity (PSR sort gate): low polyreactivity

QVQLGESGGGLVQSGGSLRLSCAASGYIFNHNAMGWYRQAPGKEWELVAGISIGGSTYYADSVKGRFTISRDNAKNTVYLQMNRLIPEDTAVYYCNTQPPLIYRGVKSDYSGQGTQVTVSS
polyreactivity (PSR sort gate): low polyreactivity

QVQLGESGGGVVQAGVSLRLSCAASGSTFTLYAMGWYRQAPGKERELVAAINGAGSTYYADSVKGRFTISRDNAKNTVYLQMNSLKPEDTAVYYCAKDLKYGWSDYWGQGTQVTVSS
polyreactivity (PSR sort gate): low polyreactivity

QVQLGESGGSLVQAGASLRLSCAASAITFYGNAMGWYRQAPGKERELVAAIRRGGSTNYADSVKGRFTISRDNAKKTVYLQMNSLKPEDTAVYYCAADSYGYTFRNYRVGYWGHGTQVTVSS
polyreactivity (PSR sort gate): high polyreactivity

QVQLGESGGVLVQAGGSLRLSCSASGSTFYSNAMGWYRQAPVKEREFVAAITGSGGSTYYADSVKGRFTISRDNAQNTVYLQMNSLKPEVTAVYYCAAGTRIYNSWIRFDYWGQGTQVTVSS
polyreactivity (PSR sort gate): high polyreactivity

QVQLGESGGVLVQAGGSLSLSCAASGNIFGRYAMGWYRQAPGKEWELVAANTRSAGSTYYADSVKGRFTISRDNEKTTVYFQMNSLKPEDTAVYYCAAAHWGYAYRRYGYGGQGTQVTVSS
polyreactivity (PSR sort gate): high polyreactivity

QVQLGESRGGLVQAVGSLSLSCAAYGFTYDKNAMGWYIQAPGNESALDAAINIRSTYYAESVKGRFTISRDNAKNTVYLQMNSMKPEDTAVYYCANEVPSGYWFNYYYWGQGTQVTVSS
polyreactivity (PSR sort gate): low polyreactivity

QVQLGESVGGLVQAGGSLRLSCAASGSILFPYPMGWYRQAPGKERELVAAISWSGDSTRYADSVKGRFTISRDNAKNTVYLQMNSLKPEVTAVYYCATSSDATGTFAPMDSWGQGTQVTVSS
polyreactivity (PSR sort gate): low polyreactivity

QVQLGETGGGLVQAGGSLRLICAASGSTFTINGMGWSRQAPGKDRELVAAITSGGSTYYADSVKGRFTISRDNAKNTVYLQMNSLKPEDTAVYFCAAADGRDYWGQGTQVTVSS
polyreactivity (PSR sort gate): low polyreactivity

QVQLHESGGGLEQAGGSLRLSCAASGYISDIGTMGWYRQAPGKEREFVATIVVGSTTNYADSVKGRFTISRDNAKNSVYLQPESGRYRGVLLRGWLLAVGKFTYWGQGTQETVSS
polyreactivity (PSR sort gate): low polyreactivity
